Results published in a protein production outcome set (Wang et al. 2014).

Assay: label from the status in PepcDB records

Sequence	protein production
MLRSSAAAGKGGRILAAKQVNPTRMELTRLKKKRITAIRGHKLLKDKRDELMRQYLDLVRENMEVRKKVEAGIRSANKNFVIAKAGMSEAALNTALMAPKQEVNLEAGEKNVMSVDIPTFQYKTRTADENDIYSYGFAFTSGDLDGAVKSLADVLPDMIRLAECEKACQLMAAEIEKTRRRVNALEHVIIPETEQSIKYITMKLDENERSTQIRLMKVKDMMLEETHHYSEK	failed
MLRVVSLTLVTLISAVAAAAAEPQAGDDLAICRDRQAELQARAQACDNLLNADRLAGKDKAIALSVRGNTLINKRDYARAIETLSMAVDLDPDNVIVLNLRGLAYERSGKDDLAMADYNLALQKRPTYGVPYNNRGVIHLRRGALQSALDDFNLSIKYTPKFLLGWTNRARVRTLMKDFDGAIADFAEAEKIDPAAPQIAGNRCITWGMMGKYDQAFADCNGLIEKQPKNVYAINNRADVSMMKGDLDAALKDYNSAIQINPNNVRAHSGRGQIYERRKDLAQARADYRAAAYSLTKFDELDVARARAVAQERLAALTPQAPAGATGRRVALVIGNGAYKNVHALPNPPRDSKLIANALRDVGFQTVISVSDLTRDKFFEALQTFAAEAEKADWAVVYYAGHGFEIGGVNYLVPVDAKLAADRDAEAQAVALEQVIAAVGAARKVRLVMLDACRDNPFAPTMQRTLSLKLVDKGFSNIEPGAGFMVVYAAKHGETAMDGDGGTDSPFATALAREIKEPRVEIRKLFDIVRDDVWSATRHEQQPFTYGSPPGREDFYFAAGK	failed
MLRYHMQGFSGYGVQYSPFFDNRLAVAAGSNFGLVGNGKLFILEIDRSGRIVEVNSFLTQDCLFDLAWNESHENQVLVAQGDGTLRLFDTTFKEFPIAIFKEHEREVFSCNWNLVNRQNFLSSSWDGSIKIWSPLRKQSLMTLTPRPLEITKMVDPLNAIILKKKSFTGISKNRNCVYQAQFSPHDQNLVLSCSGNSYASLFDIRLPSGKNQNNFLVHSGLEALTCDFNKYRPYVVATGGVDNAIRIWDIRMLNKNESATIKRTVPGQLHNSSCINEIPNAHGLAIRKVTWSPHHSNILMSASYDMTCRIWRDLSNDGAKETYKTNSTDATKGSIFNFTQHSEFVFGADWSLWGKPGYVASTAWDGNLFVWNGLG	failed
MLRYSFRSIKRNFASSLLLVGALVAIFVASPLSFSMLSSIQAEVDANIKQYARGSYDLLIRPIGTQTAVETTLGVVEENYLALGEGGISLNEWETIKALDGVEVAAPVASLGYFAGETHTVAVEFPNNSSFIEGRFQTSDGLHTYPLQAGGSYYVLEQEGYYYGYEYVQQGNEEIPGSGGPPFFSMPVTYHLIVGIDQQEEEKLTGFNFSALNNSIPEGFRFYFDLDVERHIKIIYLKDATTPLTVQVDVAPIDWETADTERLKDELGLTYDEPLFISEQFPSLFTQFQDRHIGPIETYTFDLSEHMPPFSYDPVSLDYDGSMHEPIENAYGVSESSRFYQASPIDYDIQAGGRLKVKQVGDYEGIPIYRTIQEQGGAAYELHGIGKIPFLLYPVGHFTTAEYEHSLSASPLGIYQQAPSVLSDGTMLHETIAPGSFVNAPAHGLMALEDAAFIKGDAPIDAIRIRVAGITAYDQEAVDKMSQVATEIAKLGDYQIDVIAGASPAPMTMDVEGIGEVVQPWTSLGAAATIRDGWNGTNVLIAGLFLFVSISYLANRFHFRRHTKKEEQELLLDLGWKKRHIRWLYLMENSSLIFLSAAIASLILLAYIWLYQADWFILIFFVAVVVLTFLFSLIYVSMMRGVQKISFRRLKGQTVWIRNLFYYRRLLTLSIIQLASVALLLAFVVSSIAATIAQTGGTYLGVYINDAVFIPLVSIMVAALFLAVLTVGESTSAFLLLRKEELQTLRDIGWRIKDVHRLCLKESAVWTTGAIMGGVVISLLTVSVFYSLSLSFLLFAGVAVVLLSSIAIVTAGGMIRSSLRKMA	failed
MLSERAAQMVIFSALIKHKNFTVAAKSLGVSVSHVSKQLSQLEESLGIKLVQRTTRSFTPTEAGKTFYHHCEQVVQAVSSATLEMESQRDEVAGLVRLGLSQSFGTLHIIPAIQELRELYPQLQVEVHLFDYKVDMLAEGLDLWVTNNEHLPEGYIAQRLTDCQFVVAASPDYLLKYDTPTEPNDLSLHNCLIYRSWERDYTGWAFTKGQQELNVKVSGNYSVDLAEAVRDAAIAGWGIAYLATYLLGDEFRTGKLIQLLPDWKASQSMPFYAVYPSRQHMPKKISAVINFIKQKIGNPCHWDQRLAPYISIPK	failed
MLSHHPSLHFLSKLSTLSLQRNQEKQALVEELEERIELLNRLETTLSKTLNCFPEELVTFLKNNDSVTSLAEFAAECNVDPLRDTQTELLIAASQKLERWWQVEKLVEEEKKRNYEAEKLLKDFEAFKKDLETVITGFKAEQSSATQASVDQEKKALEKLKKAFESYEANSSCQPVDVTHEEVVELGKKVTLLEAQVIEEQLQLDTYQMLPQDPVLARIVLDEAKEKLKEFSAERDSILRNMKFV	failed
MLSIFYWLLAIFLINLGIFIFVLTHERRSMWAGLTLTSTLMFLAFLAIDALIIIEAQFPQQHQIIANLLLLASVGVALFILVFVFLLIIIFLYNGIKILIKEGTKWTNFLSLGTGIAIILLIFAYPVLGRSTSAPWFRFIYLFLSMSIFYIIFIMVMYTLTSWLNLININTKKLNYIVVLGAGLLGKKVTPLLASRINRGIEIYHKNPDSKLIMSGGQGPDEEIPESHAMAAYAEEHGVPKSDIIIEDRSKTTNQNLKFSHQLMKPNSTFCIVTNSYHVYRALVLAKRQGLQCIGYGAKTKWYFTLNAFIREFIAYLVITKKMQCSIIGSLAVINIIFAALYYASTQFFS	failed
MLSIKANHFMPIVRLKENEPFEAALRRFKRTIEKTGLLTELRSREFYEKPTAERKRKHAAAVKRHYKRIRSQQLPPRLYLEHHHHHH	failed
MLSIKQLSYALAVSKTLHFRKAADLCHVRQSTLSTGVSELERQLGIKIFERDNKKVLVTPLGREVLDKASNIMLQLEDMAHLDHSCGEP	failed
MLSKFIKTTLATSLLITLSACSNLKSPVPPAKKADQEKLYESTKNYNALIAMYRADLKHFKDPMTQFKLAKSYYHIGDSKSSVLYLKPLRFTKQPFNNEIELLYIRNLIQLGKYQEAQTVATDLIKMSPQNSEAYNLRGISSAQQGELAKAEQDMNKARELFINDVVAINNIAMLNILNNDYRNAVNLLLPQYLNGSKDSRLIHNLVFALVKSGDIDYATDIIRKESLYASPEDLINALKNTEKAPKVGR	failed
MLSKPMELLRPSKGMINVHPIQRGGILTEEARKVLLEWGDGYSMCDICLEGRVDLLDKPPVKRFKEEVAEFLGMDEVRFTAGARHAKFVAMSGFKGALVVDSLAHYTTYIAAELNGLRVYEVPNTGYPEFRIEAESYTDVFEKVKEETGDYPAVALLTHADYKYGNLADAKKVAEICRDYGIPLILNTAYTSGIMEVSGRETGCDFIVASGHKSWAATAPIGILATTFEFAERVFRVSEVRGNWSGRAFTKKEVALFGCSPVYGLPLVTLMASFPVVKERVKRWKEEVEKARWFVEEMEKIEGVMLLGERPKNHTLMNFETPSFNLIAKKHRRKGYFLYHELKERGIFGVQPGMTRNVKLNVYGLSWEEVERVAEAFKEIAEKYGLEVED	failed
MLSLKKSLNPPSSFGWSDPDPCKWTHIVCTGTKRVTRIQIGHSGLQGTLSPDLRNLSELERLELQWNNISGPVPSLSGLASLQVLMLSNNNFDSIPSDVFQGLTSLQSVEIDNNPFKSWEIPESLRNASALQNFSANSANVSGSLPGFLGPDEFPGLSILHLAFNNLEGELPMSLAGSQVQSLWLNGQKLTGDITVLQNMTGLKEVWLHSNKFSGPLPDFSGLKELESLSLRDNSFTGPVPASLLSLESLKVVNLTNNHLQGPVPVFKSSVSVDLDKDSNSFCLSSPGECDPRVKSLLLIASSFDYPPRLAESWKGNDPCTNWIGIACSNGNITVISLEKMELTGTISPEFGAIKSLQRIILGINNLTGMIPQELTTLPNLKTLDVSSNKLFGKVPGFRSNVVVNTNGNPDIGKDKSSLSSPGSSSPSGGSGSGINGDKDRRGMKSSTFIGIIVGSVLGGLLSIFLIGLLVFCWYKKRQKRFSGSESSNAVVVHPRHSGSDNESVKITVAGSSVSVGGISDTYTLPGTSEVGDNIQMVEAGNMLISIQVLRSVTNNFSSDNILGSGGFGVVYKGELHDGTKIAVKRMENGVIAGKGFAEFKSEIAVLTKVRHRHLVTLLGYCLDGNEKLLVYEYMPQGTLSRHLFEWSEEGLKPLLWKQRLTLALDVARGVEYLHGLAHQSFIHRDLKPSNILLGDDMRAKVADFGLVRLAPEGKGSIETRIAGTFGYLAPEYAVTGRVTTKVDVYSFGVILMELITGRKSLDESQPEESIHLVSWFKRMYINKEASFKKAIDTTIDLDEETLASVHTVAELAGHCCAREPYQRPDMGHAVNILSSLVELWKPSDQNPEDIYGIDLDMSLPQALKKWQAYEGRSDLESSTSSLLPSLDNTQMSIPTRPYGFAESFTSVDGR	not failed
